{
  "source": "paper PMC4360532",
  "tested_on": "Rev full-length wild-type (HIV-1 (HXB3?))",
  "test": "EMSA",
  "settings": "10 mM HEPES pH 7.5, 0.1 M KCl (0.3 M KCl and no tRNA for SYBR Green II assay), 1 mM MgCl2, 0.5 mM EDTA, 2 mM DTT, 10% glycerol, 50 ug/ml yeast tRNA, 0.2 mg/ml …",
  "data": [
    {"substance": "RRE full-length 234 nt", "values": [
      {"measurement": "Kd", "value": 0.145, "unit": "nM"}
    ]}
  ]
}
